Measurements as given in patent US11833164B2, “Methods of treating Fabry disease in patients having a mutation in the GLA gene” (Amicus Therapeutics, Inc., priority 2019, dated 2023).

Test system: mutant form of α-Gal A expressed in HEK-293 cells
Test: HEK assay (GLP HEK / Migalastat Amenability Assay): α-Gal A activity in lysates of transiently transfected HEK-293 cells incubated with or without 10 μM migalastat
Format: cell-based, human
Conditions: for Absolute increase (% WT) / Relative increase: 10 μM migalastat versus baseline; for Baseline α-Gal A activity (% WT): absence of migalastat; for Baseline α-Gal A activity (% WT) / 10 μM migalastat α-Gal A activity (% WT): percentage of baseline wild-type α-Gal A activity; for Baseline α-Gal A activity (% WT) / Baseline α-Gal A activity / 10 μM migalastat α-Gal A activity / 10 μM migalastat α-Gal A activity (% WT): mean ± SEM; for Baseline α-Gal A activity / 10 μM migalastat α-Gal A activity: lysates of HEK-293 cells transiently transfected with the mutant form; for Baseline α-Gal A activity: incubated 5 days in absence of migalastat; for 10 μM migalastat α-Gal A activity: incubated 5 days with 10 μM migalastat; for 10 μM migalastat α-Gal A activity (% WT): with 10 μM migalastat, 5 days
How it was run: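 HEK-293 cells transiently transfected with mutant α-Gal A and incubated with or without 10 μM migalastat; lysate activity given as nmol free 4-MU released per mg protein per hour. Values are mean±SEM.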

B1: V351E (protein)
chain: MQLRNPELHLGCALALRFLALVSWDIPGARALDNGLARTPTMGWLHWERFMCNLDCQEEPDSCISEKLFMEMAELMVSEGWKDAGYEYLCIDDCWMAPQRDSEGRLQADPQRFPHGIRQLANYVHSKGLKLGIYADVGNKTCAGFPGSFGYYDIDAQTFADWGVDLLKFDGCYCDSLENLADGYKHMSLALNRTGRSIVYSCEWPLYMWPFQKPNYTEIRQYCNHWRNFADIDDSWKSIKSILDWTSFNQERIVDVAGPGGWNDPDMLVIGNFGLSWNQQVTQMALWAIMAAPLFMSNDLRHISPQAKALLQDKDVIAINQDPLGKQGYQLRQGDNFEVWERPLSGLAWAEAMINRQEIGGPRSYTIAVASLGKGVACNPACFITQLLPVKRKLGFYEWTSRLRSHINPTGTVLLQLENTMQMSLKDLL
In the case of B1, the “Absolute increase (% WT)” value is reported as 7.2 % WT, the Relative increase is reported as 1.7 and the “Baseline α-Gal A activity (% WT)” value is reported as 10.5 ± 0.5 % WT. The “Baseline α-Gal A activity” value was 4760 ± 281 nmol/mg/h, the “10 μM migalastat α-Gal A activity” value was 7910 ± 348 nmol/mg/h and the “10 μM migalastat α-Gal A activity (% WT)” value was 17.7 ± 1 % WT.

B2: A352S (protein)
chain: MQLRNPELHLGCALALRFLALVSWDIPGARALDNGLARTPTMGWLHWERFMCNLDCQEEPDSCISEKLFMEMAELMVSEGWKDAGYEYLCIDDCWMAPQRDSEGRLQADPQRFPHGIRQLANYVHSKGLKLGIYADVGNKTCAGFPGSFGYYDIDAQTFADWGVDLLKFDGCYCDSLENLADGYKHMSLALNRTGRSIVYSCEWPLYMWPFQKPNYTEIRQYCNHWRNFADIDDSWKSIKSILDWTSFNQERIVDVAGPGGWNDPDMLVIGNFGLSWNQQVTQMALWAIMAAPLFMSNDLRHISPQAKALLQDKDVIAINQDPLGKQGYQLRQGDNFEVWERPLSGLAWAVSMINRQEIGGPRSYTIAVASLGKGVACNPACFITQLLPVKRKLGFYEWTSRLRSHINPTGTVLLQLENTMQMSLKDLL
B2 was tested, and the “Absolute increase (% WT)” value was 12.1 % WT, the Relative increase was 1.2 and the “Baseline α-Gal A activity (% WT)” value was 52.8 ± 3.7 % WT. The “Baseline α-Gal A activity” value was 23476 ± 1901 nmol/mg/h, the “10 μM migalastat α-Gal A activity” value was 28397 ± 1310 nmol/mg/h and the “10 μM migalastat α-Gal A activity (% WT)” value was 64.9 ± 2.5 % WT.

B3: M353K (protein)
chain: MQLRNPELHLGCALALRFLALVSWDIPGARALDNGLARTPTMGWLHWERFMCNLDCQEEPDSCISEKLFMEMAELMVSEGWKDAGYEYLCIDDCWMAPQRDSEGRLQADPQRFPHGIRQLANYVHSKGLKLGIYADVGNKTCAGFPGSFGYYDIDAQTFADWGVDLLKFDGCYCDSLENLADGYKHMSLALNRTGRSIVYSCEWPLYMWPFQKPNYTEIRQYCNHWRNFADIDDSWKSIKSILDWTSFNQERIVDVAGPGGWNDPDMLVIGNFGLSWNQQVTQMALWAIMAAPLFMSNDLRHISPQAKALLQDKDVIAINQDPLGKQGYQLRQGDNFEVWERPLSGLAWAVAKINRQEIGGPRSYTIAVASLGKGVACNPACFITQLLPVKRKLGFYEWTSRLRSHINPTGTVLLQLENTMQMSLKDLL
In the case of B3, the “Absolute increase (% WT)” value is reported as 13.0 % WT, the Relative increase is reported as 1.4 and the “Baseline α-Gal A activity (% WT)” value is reported as 30.3 ± 1.8 % WT. For the same molecule, the “Baseline α-Gal A activity” value was 13638 ± 804 nmol/mg/h, the “10 μM migalastat α-Gal A activity” value was 19335 ± 946 nmol/mg/h and the “10 μM migalastat α-Gal A activity (% WT)” value was 43.4 ± 2.6 % WT.

B4: M353T (protein)
chain: MQLRNPELHLGCALALRFLALVSWDIPGARALDNGLARTPTMGWLHWERFMCNLDCQEEPDSCISEKLFMEMAELMVSEGWKDAGYEYLCIDDCWMAPQRDSEGRLQADPQRFPHGIRQLANYVHSKGLKLGIYADVGNKTCAGFPGSFGYYDIDAQTFADWGVDLLKFDGCYCDSLENLADGYKHMSLALNRTGRSIVYSCEWPLYMWPFQKPNYTEIRQYCNHWRNFADIDDSWKSIKSILDWTSFNQERIVDVAGPGGWNDPDMLVIGNFGLSWNQQVTQMALWAIMAAPLFMSNDLRHISPQAKALLQDKDVIAINQDPLGKQGYQLRQGDNFEVWERPLSGLAWAVATINRQEIGGPRSYTIAVASLGKGVACNPACFITQLLPVKRKLGFYEWTSRLRSHINPTGTVLLQLENTMQMSLKDLL
For B4, the “Absolute increase (% WT)” value was 19.2 % WT, the Relative increase was 1.4 and the “Baseline α-Gal A activity (% WT)” value was 46.4 ± 2.8 % WT. The “Baseline α-Gal A activity” value was 15631 ± 1026 nmol/mg/h, the “10 μM migalastat α-Gal A activity” value was 21953 ± 937 nmol/mg/h and the “10 μM migalastat α-Gal A activity (% WT)” value was 65.6 ± 3 % WT.

B5: N355D (protein)
chain: MQLRNPELHLGCALALRFLALVSWDIPGARALDNGLARTPTMGWLHWERFMCNLDCQEEPDSCISEKLFMEMAELMVSEGWKDAGYEYLCIDDCWMAPQRDSEGRLQADPQRFPHGIRQLANYVHSKGLKLGIYADVGNKTCAGFPGSFGYYDIDAQTFADWGVDLLKFDGCYCDSLENLADGYKHMSLALNRTGRSIVYSCEWPLYMWPFQKPNYTEIRQYCNHWRNFADIDDSWKSIKSILDWTSFNQERIVDVAGPGGWNDPDMLVIGNFGLSWNQQVTQMALWAIMAAPLFMSNDLRHISPQAKALLQDKDVIAINQDPLGKQGYQLRQGDNFEVWERPLSGLAWAVAMIDRQEIGGPRSYTIAVASLGKGVACNPACFITQLLPVKRKLGFYEWTSRLRSHINPTGTVLLQLENTMQMSLKDLL
B5 was tested, and the “Absolute increase (% WT)” value was 16.7 % WT, the Relative increase was 3.3 and the “Baseline α-Gal A activity (% WT)” value was 7.3 ± 0.4 % WT. For the same molecule, the “Baseline α-Gal A activity” value was 3366 ± 241 nmol/mg/h, the “10 μM migalastat α-Gal A activity” value was 11004 ± 832 nmol/mg/h and the “10 μM migalastat α-Gal A activity (% WT)” value was 24 ± 1.6 % WT.

B6: A352T (protein)
chain: MQLRNPELHLGCALALRFLALVSWDIPGARALDNGLARTPTMGWLHWERFMCNLDCQEEPDSCISEKLFMEMAELMVSEGWKDAGYEYLCIDDCWMAPQRDSEGRLQADPQRFPHGIRQLANYVHSKGLKLGIYADVGNKTCAGFPGSFGYYDIDAQTFADWGVDLLKFDGCYCDSLENLADGYKHMSLALNRTGRSIVYSCEWPLYMWPFQKPNYTEIRQYCNHWRNFADIDDSWKSIKSILDWTSFNQERIVDVAGPGGWNDPDMLVIGNFGLSWNQQVTQMALWAIMAAPLFMSNDLRHISPQAKALLQDKDVIAINQDPLGKQGYQLRQGDNFEVWERPLSGLAWAVTMINRQEIGGPRSYTIAVASLGKGVACNPACFITQLLPVKRKLGFYEWTSRLRSHINPTGTVLLQLENTMQMSLKDLL
B6 was tested, and the “Absolute increase (% WT)” value was 31.0 % WT, the Relative increase was 1.9 and the “Baseline α-Gal A activity (% WT)” value was 37.2 ± 2.1 % WT. For the same molecule, the “Baseline α-Gal A activity” value was 15803 ± 777 nmol/mg/h, the “10 μM migalastat α-Gal A activity” value was 29351 ± 1532 nmol/mg/h and the “10 μM migalastat α-Gal A activity (% WT)” value was 68.2 ± 3.2 % WT.

B7: I354R (protein)
chain: MQLRNPELHLGCALALRFLALVSWDIPGARALDNGLARTPTMGWLHWERFMCNLDCQEEPDSCISEKLFMEMAELMVSEGWKDAGYEYLCIDDCWMAPQRDSEGRLQADPQRFPHGIRQLANYVHSKGLKLGIYADVGNKTCAGFPGSFGYYDIDAQTFADWGVDLLKFDGCYCDSLENLADGYKHMSLALNRTGRSIVYSCEWPLYMWPFQKPNYTEIRQYCNHWRNFADIDDSWKSIKSILDWTSFNQERIVDVAGPGGWNDPDMLVIGNFGLSWNQQVTQMALWAIMAAPLFMSNDLRHISPQAKALLQDKDVIAINQDPLGKQGYQLRQGDNFEVWERPLSGLAWAVAMRNRQEIGGPRSYTIAVASLGKGVACNPACFITQLLPVKRKLGFYEWTSRLRSHINPTGTVLLQLENTMQMSLKDLL
For B7, the “Absolute increase (% WT)” value was 27.8 % WT, the Relative increase was 2.4 and the “Baseline α-Gal A activity (% WT)” value was 20.1 ± 1.2 % WT. The “Baseline α-Gal A activity” value was 9157 ± 633 nmol/mg/h, the “10 μM migalastat α-Gal A activity” value was 21854 ± 1398 nmol/mg/h and the “10 μM migalastat α-Gal A activity (% WT)” value was 47.9 ± 2.6 % WT.

B8: N355H (protein)
chain: MQLRNPELHLGCALALRFLALVSWDIPGARALDNGLARTPTMGWLHWERFMCNLDCQEEPDSCISEKLFMEMAELMVSEGWKDAGYEYLCIDDCWMAPQRDSEGRLQADPQRFPHGIRQLANYVHSKGLKLGIYADVGNKTCAGFPGSFGYYDIDAQTFADWGVDLLKFDGCYCDSLENLADGYKHMSLALNRTGRSIVYSCEWPLYMWPFQKPNYTEIRQYCNHWRNFADIDDSWKSIKSILDWTSFNQERIVDVAGPGGWNDPDMLVIGNFGLSWNQQVTQMALWAIMAAPLFMSNDLRHISPQAKALLQDKDVIAINQDPLGKQGYQLRQGDNFEVWERPLSGLAWAVAMIHRQEIGGPRSYTIAVASLGKGVACNPACFITQLLPVKRKLGFYEWTSRLRSHINPTGTVLLQLENTMQMSLKDLL
For B8, the “Absolute increase (% WT)” value was 9.9 % WT, the Relative increase was 3.5 and the “Baseline α-Gal A activity (% WT)” value was 4 ± 0.2 % WT. For the same molecule, the “Baseline α-Gal A activity” value was 1822 ± 81 nmol/mg/h, the “10 μM migalastat α-Gal A activity” value was 6399 ± 338 nmol/mg/h and the “10 μM migalastat α-Gal A activity (% WT)” value was 13.9 ± 0.6 % WT.

B9: M353L (protein)
chain: MQLRNPELHLGCALALRFLALVSWDIPGARALDNGLARTPTMGWLHWERFMCNLDCQEEPDSCISEKLFMEMAELMVSEGWKDAGYEYLCIDDCWMAPQRDSEGRLQADPQRFPHGIRQLANYVHSKGLKLGIYADVGNKTCAGFPGSFGYYDIDAQTFADWGVDLLKFDGCYCDSLENLADGYKHMSLALNRTGRSIVYSCEWPLYMWPFQKPNYTEIRQYCNHWRNFADIDDSWKSIKSILDWTSFNQERIVDVAGPGGWNDPDMLVIGNFGLSWNQQVTQMALWAIMAAPLFMSNDLRHISPQAKALLQDKDVIAINQDPLGKQGYQLRQGDNFEVWERPLSGLAWAVALINRQEIGGPRSYTIAVASLGKGVACNPACFITQLLPVKRKLGFYEWTSRLRSHINPTGTVLLQLENTMQMSLKDLL
B9 was tested, and the “Absolute increase (% WT)” value was 14.6 % WT, the Relative increase was 1.2 and the “Baseline α-Gal A activity (% WT)” value was 66.6 ± 2.7 % WT. For the same molecule, the “Baseline α-Gal A activity” value was 30347 ± 1572 nmol/mg/h, the “10 μM migalastat α-Gal A activity” value was 36987 ± 1768 nmol/mg/h and the “10 μM migalastat α-Gal A activity (% WT)” value was 81.2 ± 2.7 % WT.
